Test [1] has as its target T1, full length human KLRG1 (human, UniProt Q96E93 1-195).
T1 construct: whole, on cells; also called CHO-human-KLRG1; CHO-hKLRG1
T1 sequence (looked up): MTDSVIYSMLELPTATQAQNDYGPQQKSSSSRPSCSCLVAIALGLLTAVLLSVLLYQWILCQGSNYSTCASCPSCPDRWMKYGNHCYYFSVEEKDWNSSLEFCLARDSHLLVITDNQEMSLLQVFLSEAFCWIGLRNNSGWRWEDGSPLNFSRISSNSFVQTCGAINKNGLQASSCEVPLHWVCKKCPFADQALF
The experiment in a line: FACS competition, loss of HIS tagged E-cadherin binding to CHO-hKLRG1 cells. As for the experimental part: (§1) The ability of monoclonal antibodies to inhibit E-cadherin/KLRG1 binding was measured by FACS. Binding of E-cadherin to CHO-hKLRG1 cells was first determined by incubating the KLRG1 expressing cells with varying concentration of HIS tagged recombinant E-cadherin and detected by FACS with anti-HIS detection antibody.

Test [2] has as its target T1, full length human KLRG1. The experiment in a line: cell-based or functional assay.
For test [3], the target named is T1, full length human KLRG1. Put plainly: E-cadherin binding inhibition study, FACS on CHO-hKLRG1 cells; labels of Table 12 stand one row too low, value agrees with ABC_G1N05 in Table 8. As for the experimental part: as §1
(§2) IC50 values for each antibody were derived from E-cadherin binding inhibition studies and plotted against IFNγ production levels measured in CD8+ T cells IFNγ release assays.

The target in test [4] is T1, full length human KLRG1. Put plainly: cell-based or functional assay. The source holds these as a separate data set.
Test [5] concerns the target T1, full length human KLRG1. The experiment in a line: FACS on CHO-human-KLRG1 cells. The protocol:
(§3) Binding of anti-KLRG1 monoclonal antibodies to cell expressed human and cynomolgus-KLRG1 was carried out by FACS. Chinese hamster ovary (CHO) cells were stably transfected to express full length human KLRG1 (CHO-human-KLRG1) and cynomolgus KLRG1 (CHO-cynomolgus-KLRG1).

The target in test [6] is T2, cynomolgus KLRG1 ECD (cynomolgus, biotinylated in the OCTET assay, site not stated).
T2 construct: Recombinant proteins were made as FC fusion or as HIS tagged versions; also called cynonolgus KLRG1 ECD
T2 chain: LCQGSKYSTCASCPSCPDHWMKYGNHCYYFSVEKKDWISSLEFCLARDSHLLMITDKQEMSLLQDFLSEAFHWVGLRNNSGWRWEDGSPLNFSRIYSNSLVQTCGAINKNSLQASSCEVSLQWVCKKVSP
The experiment in a line: hybridoma screen for binding to KLRG1 ECD.

Test [7] deals with T3, full length cynomolgus KLRG1 (cynomolgus, UniProt A0A2K5WAP9 1-186).
T3 construct: whole, on cells; also called Cyno KLRG1; CHO-cynomolgus-KLRG1
T3 sequence: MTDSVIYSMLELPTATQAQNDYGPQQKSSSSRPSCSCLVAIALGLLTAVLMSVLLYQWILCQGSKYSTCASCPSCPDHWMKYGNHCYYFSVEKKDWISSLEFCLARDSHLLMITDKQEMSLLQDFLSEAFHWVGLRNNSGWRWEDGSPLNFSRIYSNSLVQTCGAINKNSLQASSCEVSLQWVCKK
Put plainly: FACS on CHO-cynomolgus-KLRG1 cells. The protocol: as §3

In test [8] the target is T1, full length human KLRG1. The experiment in a line: E-cadherin binding inhibition study, FACS on CHO-hKLRG1 cells; labels of Table 12 stand one row too low, value agrees with ABC_G1N08 in Table 8. As for the experimental part: as §1, §2
The target in test [9] is T1, full length human KLRG1. The experiment in a line: E-cadherin binding inhibition study, FACS on CHO-hKLRG1 cells; labels of Table 12 stand one row too low, value agrees with ABC_G1N02 (5.03) in Table 8. The protocol: as §1, §2

B1: ABC_G1N05 (antibody, V domains shown)
VH: EVLLMESGGDLVKPGGSLKLSCAASGFTFSSYDMSWVRQTPDKRLEWVATISSSGRYTFYPDNVKGRFTISRDNAKNTLYLQVSNLKSEDTAMYYCSRTGVTTVVFTDYFDYWGQGTTLTVSS
VL: DIQMTQSPSSLSASLGERVSLTCRASQDIGNSLNWLQQGPDGTIKRLIYATSSLDSGVPKRFSGSRSGSTYSLTISSLESEDFVAYYCLQYLSSPPTFGGGTKLEIK
notes: Mouse hybridoma monoclonal antibody
Take B1: the IC50 in test [1] and in test [3] was 23 nM in each case. The “IFNγ released (pg/ml), Sample 1” value in test [2] stood at 1010 pg/mL. Also, the “IFNγ released (pg/ml), Sample 2” value in test [2] turned out to be 1080 pg/mL. Moreover, in test [4], the “IFNγ” value came out at 1050 pg/mL. The EC50 in test [5] was determined as 39.8 nM; in [7], 0.5 nM. For the same molecule, the binding result in test [6] is given as “binds”.

B2: ABC_G1N08 (antibody, V domains shown)
VH: QVQLQQSGAELAKPGASVKLSCKASGYTFTSYFLHWVKQRPGQGLEWIGYMNPSSGYTKCNQKFKDKATLTADKSSSTAYMQVSSLTYEDSAVYYCARDRIGYWDFDVWGTGTTVTVSS
VL: DVVMTQSQKFMSTTVGDRVSITCKASQNVGTAVAWYQQKPGQSPKLLIYSASNRYTGVPDRFTGSGSGTDFTLTITNMQSEDLADYFCQQYSSYLTFGAGTKLDLK
notes: as for B1
Turning to B2, the IC50 in test [1] and in [8] was 10 nM each time. Further, the “IFNγ released (pg/ml), Sample 1” value in test [2] is 1010 pg/mL. Also, in test [2], the “IFNγ released (pg/ml), Sample 2” value was determined as 1060 pg/mL. Further, the “IFNγ” value in test [4] came to 1040 pg/mL. In addition, the EC50 was 4.8 nM in [5] and 1.3 nM in test [7]. The binding result in [6] was “binds”.

B3: ABC_G1N02 (antibody, V domains shown)
VH: QVTLKESGPGILQPSQTLSLTCSVSGFSLSTFGMGVGWIRQPSGKGLEWLAHIWWDDDKWYELALKSRLTISKDSSKNQVFLKIANVDTADTATYFCARVIYYGSRSAYYSMDYWGPGTSVTVSS
VL: DVLMTQTPLSLPVSLGAQASISCKSSQSIVHSNGHTYLEWYLQKPGQSPKILIYKVSNRFSGVPDRFSGSGSGTDFTLKISRVEAEDLGVYYCFQGSHVPVTFGAGTKLELK
notes: as for B1
Take B3: the half-maximal inhibitory concentration (IC50) in test [1] was found to be 5.03 nM; in [9] it was 5 nM. In addition, the “IFNγ released (pg/ml), Sample 1” value in [2] worked out at 1440 pg/mL. For the same molecule, in test [2], the “IFNγ released (pg/ml), Sample 2” value came out at 1290 pg/mL. Besides, the “IFNγ” value in test [4] was found to be 1370 pg/mL. In addition, the EC50 in [5] was 1.01 nM; in [7], 2.02 nM. Further, the binding result in test [6] is recorded as “binds”.
